Each sequence was assayed on Escherichia coli TOP10 (assay: shrunken log2 fold change of peptide-encoding DNA abundance (4.5 h post-induction vs induction); higher = less antimicrobial activity (less host growth inhibition)). Conditions: time post-induction: 4.5 h; library: site-saturation at positions 5, 18, 19, 20.
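Also: peptides expressed intracellularly from a pBAD plasmid library in pooled LB shake-flask culture, induced with 0.3% L-arabinose, DNA abundance read by NGS, three biological replicates, DESeq2 with apeglm shrinkage.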

Sequence	shrunken log2 fold change
RRIRHRPPRLPRPRPRPGHAPRP	-0.0876
RRIRPRPPRLPRPRPRPYHVPRP	-0.199
RRIRMRPPRLPRPRPRPDLFPRP	0.803
RRIRPRPPRLPRPRPRPQPIPRP	0.0388
RRIRCRPPRLPRPRPRPPCEPRP	-0.0942
RRIRTRPPRLPRPRPRPQFHPRP	-0.541
RRIRDRPPRLPRPRPRPPNTPRP	0.0945
RRIRCRPPRLPRPRPRPNTFPRP	-0.664
RRIRKRPPRLPRPRPRPPNIPRP	-1.03
RRIRFRPPRLPRPRPRPEKLPRP	-0.0722
RRIRHRPPRLPRPRPRPMSIPRP	-0.0719
RRIRRRPPRLPRPRPRPKDIPRP	-0.193
RRIRSRPPRLPRPRPRPHKHPRP	-0.411
RRIRDRPPRLPRPRPRPIPDPRP	-0.0185
RRIRERPPRLPRPRPRPLWHPRP	-0.0827
RRIRLRPPRLPRPRPRPRKIPRP	0.103
RRIRIRPPRLPRPRPRPIACPRP	-0.0842
RRIRCRPPRLPRPRPRPIYNPRP	-0.761
RRIRKRPPRLPRPRPRPIRAPRP	0.14
RRIRIRPPRLPRPRPRPGYIPRP	-0.752
RRIRARPPRLPRPRPRPINLPRP	-0.376
RRIRYRPPRLPRPRPRPFYHPRP	-0.635
RRIRQRPPRLPRPRPRPDPYPRP	0.032
RRIRKRPPRLPRPRPRPKGEPRP	0.201
RRIRGRPPRLPRPRPRPTAHPRP	1.12

Sequence	shrunken log2 fold change
RRIRYRPPRLPRPRPRPTLIPRP	-0.743
RRIRVRPPRLPRPRPRPNYGPRP	-0.387
RRIRNRPPRLPRPRPRPPMPPRP	0.0312
RRIRERPPRLPRPRPRPMDTPRP	-0.501
RRIRWRPPRLPRPRPRPMVDPRP	-0.0461
RRIRIRPPRLPRPRPRPFCWPRP	-0.0029
RRIRIRPPRLPRPRPRPLTDPRP	-0.201
RRIRFRPPRLPRPRPRPYHDPRP	-0.722
RRIRCRPPRLPRPRPRPQPQPRP	0.526
RRIRWRPPRLPRPRPRPCAEPRP	0.618
RRIRARPPRLPRPRPRPLCFPRP	0.195
RRIRARPPRLPRPRPRPCLEPRP	0.19
RRIRWRPPRLPRPRPRPDEEPRP	0.215
RRIRLRPPRLPRPRPRPRAEPRP	0.0944
RRIRWRPPRLPRPRPRPFLCPRP	-0.139
RRIRERPPRLPRPRPRPMHQPRP	-0.452
RRIRARPPRLPRPRPRPICNPRP	0.176
RRIRCRPPRLPRPRPRPLHIPRP	-0.335
RRIRKRPPRLPRPRPRPHFGPRP	-0.067
RRIRGRPPRLPRPRPRPNAHPRP	0.754
RRIRFRPPRLPRPRPRPRAIPRP	0.0543
RRIRCRPPRLPRPRPRPAGGPRP	0.489
RRIRNRPPRLPRPRPRPTTSPRP	-0.292
RRIRCRPPRLPRPRPRPHLMPRP	-0.223
RRIRVRPPRLPRPRPRPYWYPRP	-0.964

Sequence	shrunken log2 fold change
RRIRVRPPRLPRPRPRPFCGPRP	-0.0559
RRIRYRPPRLPRPRPRPQCSPRP	-0.73
RRIRSRPPRLPRPRPRPPAWPRP	0.436
RRIRYRPPRLPRPRPRPLIGPRP	-0.478
RRIRCRPPRLPRPRPRPLKKPRP	-0.26
RRIRERPPRLPRPRPRPVKDPRP	-0.189
RRIRPRPPRLPRPRPRPKEDPRP	0.176
RRIRVRPPRLPRPRPRPLDYPRP	-0.244
RRIRARPPRLPRPRPRPFWAPRP	0.218
RRIRARPPRLPRPRPRPCTWPRP	0.108
RRIRFRPPRLPRPRPRPIDLPRP	-0.164
RRIRCRPPRLPRPRPRPDLLPRP	-0.393
RRIRCRPPRLPRPRPRPWPTPRP	0.0985
RRIRTRPPRLPRPRPRPYQKPRP	-0.197
RRIRARPPRLPRPRPRPNFVPRP	-0.122
RRIRPRPPRLPRPRPRPDSHPRP	0.101
RRIRRRPPRLPRPRPRPWQAPRP	0.0707
RRIRRRPPRLPRPRPRPTTFPRP	3.05
RRIRKRPPRLPRPRPRPEEPPRP	3.09
RRIRHRPPRLPRPRPRPNIIPRP	-0.307
RRIRHRPPRLPRPRPRPDWVPRP	-0.0196
RRIRNRPPRLPRPRPRPKRPPRP	0.589
RRIRCRPPRLPRPRPRPHGAPRP	0.0255
RRIRNRPPRLPRPRPRPKPDPRP	0.355
RRIRARPPRLPRPRPRPCGAPRP	0.737

Sequence	shrunken log2 fold change
RRIRYRPPRLPRPRPRPMGFPRP	-0.179
RRIRHRPPRLPRPRPRPITTPRP	-0.0193
RRIRIRPPRLPRPRPRPFYKPRP	-0.0824
RRIRLRPPRLPRPRPRPCLPPRP	-0.0626
RRIRTRPPRLPRPRPRPIPTPRP	-0.606
RRIRTRPPRLPRPRPRPTVPPRP	0.0189
RRIRWRPPRLPRPRPRPKMRPRP	1.25
RRIRERPPRLPRPRPRPKLDPRP	-0.052
RRIRYRPPRLPRPRPRPVKRPRP	-0.00146
RRIRQRPPRLPRPRPRPYEKPRP	-0.0946
RRIRGRPPRLPRPRPRPTCDPRP	0.432
RRIRNRPPRLPRPRPRPWHAPRP	-0.0713
RRIRARPPRLPRPRPRPETPPRP	1.65
RRIRGRPPRLPRPRPRPTCGPRP	0.915
RRIRIRPPRLPRPRPRPFNWPRP	-0.155
RRIRRRPPRLPRPRPRPLQVPRP	0.000182
RRIRGRPPRLPRPRPRPLNFPRP	-0.0482
RRIRNRPPRLPRPRPRPDIYPRP	-0.265
RRIRMRPPRLPRPRPRPYLQPRP	-0.0699
RRIRVRPPRLPRPRPRPYNSPRP	-0.0974
RRIRCRPPRLPRPRPRPNEGPRP	-0.1
RRIRRRPPRLPRPRPRPYIFPRP	-0.639
RRIRSRPPRLPRPRPRPHEDPRP	0.132
RRIRTRPPRLPRPRPRPTIQPRP	-0.0327
RRIRVRPPRLPRPRPRPEPVPRP	0.365

Sequence	shrunken log2 fold change
RRIRKRPPRLPRPRPRPMVGPRP	0.0659
RRIRDRPPRLPRPRPRPYRQPRP	0.0922
RRIRLRPPRLPRPRPRPCFVPRP	-0.392
RRIRCRPPRLPRPRPRPGVEPRP	0.0401
RRIRKRPPRLPRPRPRPVCTPRP	2.01
RRIRMRPPRLPRPRPRPTFAPRP	0.573
RRIRFRPPRLPRPRPRPKHIPRP	-0.615
RRIRNRPPRLPRPRPRPPRHPRP	0.271
RRIRCRPPRLPRPRPRPVQHPRP	-0.0893
RRIRQRPPRLPRPRPRPAHIPRP	-0.137
RRIRQRPPRLPRPRPRPLLRPRP	-0.0709
RRIRVRPPRLPRPRPRPVAEPRP	0.104
RRIRQRPPRLPRPRPRPDDVPRP	0.064
RRIRTRPPRLPRPRPRPQTSPRP	0.413
RRIRCRPPRLPRPRPRPCIWPRP	-0.0143
RRIRPRPPRLPRPRPRPSGPPRP	-0.174
RRIRHRPPRLPRPRPRPALWPRP	0.701
RRIRRRPPRLPRPRPRPHIAPRP	-0.0643
RRIRWRPPRLPRPRPRPTINPRP	-0.303
RRIRDRPPRLPRPRPRPFPTPRP	0.0231
RRIRTRPPRLPRPRPRPDKIPRP	-0.172
RRIRARPPRLPRPRPRPRNFPRP	-0.0153
RRIRLRPPRLPRPRPRPEDEPRP	0.00911
RRIRTRPPRLPRPRPRPDHTPRP	-0.145
RRIRFRPPRLPRPRPRPHTHPRP	-0.618
